This is an account of results in the RNAGym collection of RNA variant scans (doi:10.1073/pnas.2313332121).

B1: TPR t1 (parent)
chain: GACCAAUCUGCCCUCAGAGCUCGAGAACAUCUUCGGAUGCAGAGGAGGCAGGCUUCGGUGGCGCGAUAGCGCCAACGUCCUCAACCUCCAAUGCAUCCCACCACAUGAUGAUGCCUGAAGAGCCUUGGUUUUUUG

In the series the parent is B1. The series can be described thus: polymerase ribozyme fitness, log enrichment relative to wild type (log ratio); higher = more active; in vitro selection for triplet polymerase activity. A digest of the protocol:
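Fitness is a logarithmic measure of how a genotype enriched relative to the wild type, with replicate averages weighted by inverse variance. The logarithm uses base 2, and enrichment came from Illumina sequencing of input and output libraries. Those libraries were PCR-built, transcribed mutants of each subunit of a heterodimeric triplet polymerase ribozyme, passed through one triplicate in vitro selection round that included frozen incubation at −7 °C, gel excision of extended constructs and streptavidin-bead capture. Genotypes were kept only if they had ≥10 input reads and ≥1 read per output.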
As for GACCAAUCUGCCCUCAGAGCUCGAGAACAUCUUCGGAUGAAGAGGAGGCAGGCUUCGGUGGCACGAUAGCGCCAACGUCCUCAACCUCCAAUGCAUCCCACCACAUGAUGAUGCCUGAAGAGCCUUGUUUUUUUG [C40A G63A G128U], the “polymerase ribozyme fitness (log ratio)” value was -4.66. As to GACCAAUCUGCCCUCAGAGCUCGAGAACAUCUUCGGAUGAAGAGGAGGCAGGCUUCGGUGGCGCGAUAGCUCCAACGUCCUCAACCUCCAAUGCAUCCCACCACAUGAUGAUGCCUCAACAGCCUUGGUUUUUUG [C40A G71U G117C G120C], the “polymerase ribozyme fitness (log ratio)” value was -5.63. Next, GACCAAUCUGCCCUCAGAGCUCGAGAACAUCUUCGGAUGAAGAGGAGGCAGGCUUCGGUGGCGCGAUAGCGCCAACGUCCUCAACCUCCAAUGCAGCCCACCACAUGAUGAUGCCUGAAGAGCCUUGGUUUUUUG [C40A U96G]: -1.47; GACCAAUCUGCCCUCAGAGCUCGAGAACAUCUUCGGAUGAAGAGGAGCCAGGCUUCGGUGACGCGAUAGCGCCAACGUCCUCAACCUCCAAUGCAUCCCACCACAUGAUGAUGCCUGAAGAGCCUUGGUUUUUUG [C40A G48C G61A]: -0.933. With GACCAAUCUGCCCUCAGAGCUCGAGAACAUCUUCGGAUGAAGAGGAGGCAGGCUACGGUGGCGCGAUACCGCAAACGUCCUCACCCUCCAAUGCAUCCCACCACAUGAUGAUGCCUGAAAAGCCUUGGUUUUUUG [C40A U55A G69C C73A A84C G120A], the “polymerase ribozyme fitness (log ratio)” value was -1.3. Turning to GACCAAUCUGCCCUCAGAGCUCGAGAACAUCUUCGGAUGAAGAGGAGGCAGGCUUCGGUGACGCGAUAGCGCUAACGUCCUCAACCUUCAAUGCAUCCCACCACAUGAUGAUUCCUGAAGAGCCUUGGUUUUUUG [C40A G61A C73U C88U G113U], the “polymerase ribozyme fitness (log ratio)” value is -6.64. GACCAAUCUGCCCUCAGAGCUCGAGAACAUCUUCGGAUGAAGAGGAGGCAGGCUUCGGUGGCGCGAUAGCUCCAACGUCCUCAACCUCCAAUGCAUCCCACCACAUGAUGAUGCCUGAAGAGCCUUGGUUAUUUG [C40A G71U U131A]: the “polymerase ribozyme fitness (log ratio)” value is -2.31. Next, GACCAAUCUGCCCUCAGAGCUCGAGAACAUCUUCGGAUGAAGAGGAGGCAGGCUUCCGUGGCGCGAUAGCGCCAACGUCCGGAACCUCCAAUGCAUACCACCACAUGAUGUUGCCUGAAGAGCCUUGGUUUUUUG [C40A G57C U81G C82G C97A A111U]: -6.79; GACCAAUCUGCCCUCAGAGCUCGAGAACAUCUUCGGAUGAAGAGGAGGCAGGCUUCGGUGGCUCGAUAGCGCCAACGUACUCAACCUCCAAUGCAUCCCACCACAUGAUGAUGCCUGAAGAGCCUUGGUGUUUUG [C40A G63U C79A U130G]: -4.83; GACCAAUCUGCCCUCAGAGCUCGAGAACAUCUUCGGAUGAAGAGGAGGCAGGCUUCGCUGGCGCGAUAGCGGCAACGGACUCAACCUCCAAUGCAUCCCACCACAUGAUGAUGCCUGAAGAGCCUUGGUUUUUUG [C40A G58C C72G U78G C79A]: -5.64. Next, GACCAAUCUGCCCUCAGAGCUCGAGAACAUCUUCGGAUGAAGAGGAGGCAGGCUUCGGUGGCUCGAUAGCGCCAACGUCCUCAACCUCCAAUGCAUCCCACCAAAUGAUGAUGCCUGAAAAGCCUUGGUGUUUUG [C40A G63U C104A G120A U130G]: -5.07; GACCAAUCUGCCCUCAGAGCUCGAGAACAUCUUCGGAUGAAGAGGAGGCAGGCUUCGGUGGCGCGAUAGCGCCAACGUCCUCAACCUCCAAUGCAUCCCACCACAUGAUGAUGCCUGAAGAGCCUUGGUUUUGUG [C40A U133G]: -1.45; GACCAAUCUGCCCUCAGAGCUCGAGAACAUCUUCGGAUGAAGAGGAGGCAGGCUUCGGUGGCACGAUAGCGCCAACGUCCUCAACCUCCAAUGCAUCCCACCACAUGAUGAUGCCUGAAGAGCCUUGGUUUUUUG [C40A G63A]: -2.68. The value for GACCAAUCUGCCCUCAGAGCUCGAGAACAUCUUCGGAUGAAGAGGAGGCAGGCUUCGGUGGCUCGAUAGCGCCAACGUCCUCAACCUCCAAUGCAUCCCACCACAUGAUGAUGCCUGAAGAGCCUUGGUUUUUUG [C40A G63U] was -3.37. In the case of GACCAAUCUGCCCUCAGAGCUCGAGAACAUCUUCGGAUGAAGAGGAGGCAGGCUUCGGUGGCGCGAUACCGCCAACGUCCUCAACCUCCAAUGCAUCCCACCACGUGAUGAUGCCUGAAGAGCCUUGGUUUUUUG [C40A G69C A105G], the “polymerase ribozyme fitness (log ratio)” value was -6.71. The value for GACCAAUCUGCCCUCAGAGCUCGAGAACAUCUUCGGAUGAAGAGGAGGCAGACUUCGGUAGCGCGAUAGCGCCAACGUCCCCAACCUCCAAUGCUUCCCACCACAUGAUGAUGCCUGAAGAGCCUUGGUUUUUUG [C40A G52A G60A U81C A95U] was -3.45. The value for GACCAAUCUGCCCUCAGAGCUCGAGAACAUCUUCGGAUGAAGAGGAGGCAGGCUUCGGAAGCGCGAUAGCGCCAACGUCCUCAACCUCCAAUGCAUCCCACCACAUGAUGAUGCCUGAAGAGCCUUGGUUUUUUG [C40A U59A G60A] was -0.777; that for GACCAAUCUGCCCUCAGAGCUCGAGAACAUCUUCGGAUGAAGAGGAGGCAGGCUUCGGAGGCGCGAUAGCGCCAACGUCCUCAACCUCCAAUGCAUCCCACCACAUGAUGAUGCCUGAAGAGCCUUGGUUUUUUG [C40A U59A] was -1.29. As for GACCAAUCUGCCCUCAGAGCUCGAGAACAUCUUCGGAUGAAGAGGAGGCAGGCUUCGGUGGCGCGAUAGCACCAACGUCCUCAACCUCCAAUGCAUCCCACCACAUGAUGAUACCUGAAGAGCCUUGGUUUUUUG [C40A G71A G113A], the “polymerase ribozyme fitness (log ratio)” value is -3.05. The value for GACCAAUCUGCCCUCAGAGCUCGAGAACAUCUUCGGAUGAAGAGGAGGCAGGCUUCGGUGGCGCGAUAGCGCCAACGUCCUCAACCUCCAAUGCAUCCCACCACAAGAUGAUACCUGAAGAGCCUUGGUUUUUUG [C40A U106A G113A] was -3.55.

For the variant GACCAAUCUGCCCUCAGAGCUCGAGAACAUCUUCGGAUGAAGAGGAGGCAGGCUUCGGUGGCGCGAUAGCGCCAACGUCCUCAACCUCCAAUGCAUCCCACCACAAGAUGAUGCCUGAAGAGCAUUGGUUUUUUG [C40A U106A C124A], the “polymerase ribozyme fitness (log ratio)” value came to 1.38.
